In the nanobody polyreactivity screen of Harvey et al. (2022):

Assay: yeast display, Sf9 membrane polyspecificity reagent, FACS + sequencing; frameworks hold sequencing errors
How it was run: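 In a synthetic yeast display library (Saccharomyces cerevisiae BJ5465), nanobody expression was induced with galactose for 36–48 hours. FACS gates were set low and high (top ~1%) using anti-HA fluorescence for expression and streptavidin fluorescence for binding of the Sf9 membrane reagent. Each polyreactivity label is drawn from the gate of origin.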

Sequence | polyreactivity (PSR sort gate)
QVQLVESGGGLVQAGGSLRLSCAASGRSFSYNAMGWYRQAPGKERELVASISGNGGRTYYADSVKGRFTISRDNAKNTVYLQMNSLKPEDTAVYYCAARYYSWGGVQYDYWGQGTQVTVSS | high polyreactivity
QVQLVESGGGLVQAGGSLRLSCAASGRSFTYYAMGWYRQAPGKERELVATISGSGGSTYYADSVKGRFTISRDNAKNTVYLQMNSLKPEDTAVYYCAATGFIFRGRVRAIPRRYNYWGQGTQVTVSS | high polyreactivity
QVQLVESGGGLVQAGGSLRLSCAASGRSFWAYAMGWYRQETGTERELVADITTSGGSTNYADSVKGRFTISRDNAKNTVYLQMNSLKPEDTAVYYCNADPTYHVVNCVGYWGHGTQVTVSS | low polyreactivity
QVQLVESGGGLVQAGGSLRLSCAASGRSFYNYAMGWYRQAPGKERELVAAISGSGGSTYYADSVKGRFTISRDNAKNSVYLQMNSLKPEDTAVYYCSTSGPQYYSRNFDSWGQGTQVTVSS | low polyreactivity
QVQLVESGGGLVQAGGSLRLSCAASGRSILLNAMGWYRHAPGKERELVAAISRGGSTYYADSVKGRFTISRDNAKYSVYLQMNSLKPEDTAVYYCAARFWISHTHWDAGDYWGQGTQVTVSS | low polyreactivity
QVQLVESGGGLVQAGGSLRLSCAASGRSLYNTMGWYRQAPGKERELVAGINWGGGRTYADSVKGRFTISRDNAKNTVYLQMNSMKPEDTAVYYCAADVNYQSRSHIVDYEYGYWGQGTQVTVSS | low polyreactivity
QVQLVESGGGLVQAGGSLRLSCAASGRTCDIYAMGWYRQAPGKERELVAAISSGGSTYYADSVKGRFTISRDNAKNTVYLQMNSLKPEDTAVYYCAVRWYDQVSRRGIGYYWGQGTLVTVSS | low polyreactivity
QVQLVESGGGLVQAGGSLRLSCAASGRTCGSYAMGWYRQAPGKERELVAAISLSAGSTYYADSVKGRFTISRDNAKNTVYLQMNSLKPEDTAVYYCAAGTQWYSQVYIYYYWGQGTQVTVSS | low polyreactivity
QVQLVESGGGLVQAGGSLRLSCAASGRTCYSNAMGWYRQAPGKERELVAAITRGASTKYADSVKGRFTISRDNAKNTVYLQMNSLKPEDTAVYYCATARYPRYIYDYWGQGTQVTVSS | low polyreactivity
QVQLVESGGGLVQAGGSLRLSCAASGRTFADYAMGWYRQAPGKERELVATIRKSTGTTYYADSVKGRFTISRDNAKNTVYLQMNSLKPEDTAVYYCAAARSRYSRWRVEYWGQGTQVTVSS | high polyreactivity
QVQLVESGGGLVQAGGSLRLSCAASGRTFAENAMGWYRQAPGKESELVAAISETGSRTYYADSVKGRFTISRDNAKNTVYLQMNSLKPEDTAVYYCAARSWHGVLWSYRHDYWGQGTQVTVSS | low polyreactivity
QVQLVESGGGLVQAGGSLRLSCAASGRTFAFNAMGWYRQAPGKERELVATISWSGGSTYYADSVKGRFTISRDNAKNTVYLQMNSLKPEDTAVYYCGAEYVVYRYRLYGTVAYDYWGQGTQVTVSS | high polyreactivity
QVQLVESGGGLVQAGGSLRLSCAASGRTFAFYAMGWYRPAPGKERELVASIRGGGGTNYADSVKGRFTISRDNAKNPVYLQMNSVKPEDTAVYYCAARGYGYRGYYYWGQGTQVTVSS | high polyreactivity
QVQLVESGGGLVQAGGSLRLSCAASGRTFAFYTMGWYRQAPGKEREFVAAISWSGGSTHYADSVKGRFTISRDNAKNTVYLQMNSLKQEDSAVYYCAAGPFYRFTDGRYKTLDYWGQGTQVTVSS | high polyreactivity
QVQLVESGGGLVQAGGSLRLSCAASGRTFAGNAMGWYRQAPGKERELVAAIRRTGGRTYYADSVKGRFTISRDNAKNTVYLQMNSLKPEDTAVYYCNAVNKPYTREYGYDYWGQGTQVTVSS | high polyreactivity
QVQLVESGGGLVQAGGSLRLSCAASGRTFAGNAMGWYRQAPGKERELVAAISWSGGRTYYADSVKGRFTISRDNAKNTVYLQMNSLKPEETAVYYCAAVRASSRFRYGYWGQGTQVTVSS | high polyreactivity
QVQLVESGGGLVQAGGSLRLSCAASGRTFALNALGWSRQAPGKERELVAAISWSSGRTYYADSVKGRFTISRDNAKNTVYLQMNSLKPEDTAVYYCAALVAHKGDYWGQGTQVTVSS | high polyreactivity
QVQLVESGGGLVQAGGSLRLSCAASGRTFALYAMGWYRQAPGKERELVAAITSGGSTNYADSVKGRFTISRDNAKNTVYVQMNSLKPEDTAVYYCNADDSSKDVIGLDYWGQGTQVTVSS | low polyreactivity
QVQLVESGGGLVQAGGSLRLSCAASGRTFANNAMGWYRQAPGKERELVAAISNGDSTYADSVKGRFTISRDNAKNTVYLQMNSLKPEDTAVYYWATRTKEDYTGDYWGQGTQVTVSS | low polyreactivity
QVQLVESGGGLVQAGGSLRLSCAASGRTFAPNAMGRSRQAPGKERELVAAITSIGTRTYYADSVKGRFTISRDNAKNTVYLHKNSLKTEVTAVYYCNKKRNADYDYWGQGTQVTVSS | low polyreactivity
QVQLVESGGGLVQAGGSLRLSCAASGRTFAPYALGWYRQAPRKERELVAAITNGGSTSYADSVKGRFTISRDNAKNTVYLQMNSLKPEDTAVYYCAADANRYHRQRWSPYKMYYWGQGTQVTVSS | low polyreactivity
QVQLVESGGGLVQAGGSLRLSCAASGRTFAPYAMGWYRQAPGKERELVAAISQRGGSTYYADSVKGRFTISRDNAKNTVYLQMNSLKPEDTAIYYCAATKYFYRLSSAFSFGTYGYWGQGTQVTVSS | low polyreactivity
QVQLVESGGGLVQAGGSLRLSCAASGRTFAPYAMGWYRQAPGKERELVAGITYRTGNTYYADSVKGRFTISRDNAKNTVYLQMNTLKPEDTGVYYCAAYSGYYRPRYNYWGQGTQVTVSS | high polyreactivity
QVQLVESGGGLVQAGGSLRLSCAASGRTFAPYVMGWYRQAPGKERELVAAITWSGGSTYYADSVKGRFTISRDNAKKTVYLQMNSLKPEDTAVYYCAVKGAGGPKYDYWGQGTQVTVSS | high polyreactivity
QVQLVESGGGLVQAGGSLRLSCAASGRTFARYAMGRYRQAPGKERELVAAITRGSGSTYYADSVKGRFTISRDNAKNTVYLQMNSLKTEDTAVYFCAKRSRGLKFDYWGQGTQVTVSS | high polyreactivity
QVQLVESGGGLVQAGGSLRLSCAASGRTFARYAMGWYRQAPGKERELVASNRRGTSTNYADSVKGRFTISRDNAKNTVYLQMNSLKPEDTAVYYCAARVGTQGDHGDYWGQGTQVTVSS | high polyreactivity
QVQLVESGGGLVQAGGSLRLSCAASGRTFASNAMGCYRQAPGKERELVAAITISGGRTYYADSVKGRFTISRDNAKNTVYLQMNSLKPEDTAVYYRAAAKHSWRPSYYWGGYWGQGTQVTVSS | low polyreactivity
QVQLVESGGGLVQAGGSLRLSCAASGRTFASYAMGWNRQPPGKERELFARISKSGGSTYYADSVKGRFTISRDNAKNTVYLQMNSLKPEDTAVYYCAAEYPFEIGYVYYSIDYDYWRQGTQVTVSS | low polyreactivity
QVQLVESGGGLVQAGGSLRLSCAASGRTFASYAMGWYRQAPGKERELVAGITSGGNTYYADSVKGRFTISRDNAKNTVYLQMNSLKPEDTAVFYCAADGVYKGWPTHYDYWGHGTQVTVSS | high polyreactivity
QVQLVESGGGLVQAGGSLRLSCAASGRTFASYAMGWYRQAPGKERQLVAAITRGGNTNYADSVKGRFTISRDNAKNTVYLQMNSLNPEDTAVYYCATEGFVYSWLWEFEYWGQGTQVTVSS | low polyreactivity
